Test results reported in IntAct's records for PubMed 31515488.

B1: U3 small nucleolar RNA-associated protein 14 homolog C (Homo sapiens), Q5TAP6 (parent)
chain: MNVNQVAENLALSHQEELVDLPKNYPLSENEDEGDSDGERKHQKLLEAIISLDGKNRRKLAERSEASLKVSEFSVSSEGSGEKLGLADLLEPVKTSSSLATVKKQLNRVKSKKVVELPLNKEKIEQIHREVAFSKTSQVLSKWDPIILKNQQAEQLVFPLGKEQPAIAPIEHALSGWKARTPLEQEIFNLLHKNKQPVTDPLLTPMEKASLQAMSLEEAKMHRAELQRARALQSYYEAKARKEKKIKSKKYHKVVKKGKAKKALKEFEQLQKVNPTVALEEMEKIENARMMERMSLKHQNSGKWAKSKAIMAKYDLEARQAMQEQLAKNKELTQKLQVASESEEEEGGTEVEELLVPHVANEVQMNVDGPNPWMFRSCTSDTKEAATQEDPEQVPELAAHEVSASEAEERPVAEEEILLREFEERQSLRKRSELNQDAEPASSQETKDSSSQEVLSELRALSQKLKEKHQSRKQKASSEGTVPQVQREEPAPEEAEPLLLQRSERVQTLEELEELGKEDCFQNKELPRPVLEGQQSERTPNNRPDAPKEKKEKEQLINLQNFLTTQSPSVRSLAVPTIIEELEDEEERDQRQMIKEAFAGDDVIRDFLKEKREAVEASKPKDVDLTLPGWGEWGGVGLKPSAKKRRQFLIKAPEGPPRKDKNLPNVIISEKRNIHAAAHQVQVLPYPFTHHRQFERTIQTPIGSTWNTQRAFQKLTTPKVVTKPGHIIKPIKAEDVGYQSSSRSDLPVIQRNPKRITTRHNKEEKL
partner: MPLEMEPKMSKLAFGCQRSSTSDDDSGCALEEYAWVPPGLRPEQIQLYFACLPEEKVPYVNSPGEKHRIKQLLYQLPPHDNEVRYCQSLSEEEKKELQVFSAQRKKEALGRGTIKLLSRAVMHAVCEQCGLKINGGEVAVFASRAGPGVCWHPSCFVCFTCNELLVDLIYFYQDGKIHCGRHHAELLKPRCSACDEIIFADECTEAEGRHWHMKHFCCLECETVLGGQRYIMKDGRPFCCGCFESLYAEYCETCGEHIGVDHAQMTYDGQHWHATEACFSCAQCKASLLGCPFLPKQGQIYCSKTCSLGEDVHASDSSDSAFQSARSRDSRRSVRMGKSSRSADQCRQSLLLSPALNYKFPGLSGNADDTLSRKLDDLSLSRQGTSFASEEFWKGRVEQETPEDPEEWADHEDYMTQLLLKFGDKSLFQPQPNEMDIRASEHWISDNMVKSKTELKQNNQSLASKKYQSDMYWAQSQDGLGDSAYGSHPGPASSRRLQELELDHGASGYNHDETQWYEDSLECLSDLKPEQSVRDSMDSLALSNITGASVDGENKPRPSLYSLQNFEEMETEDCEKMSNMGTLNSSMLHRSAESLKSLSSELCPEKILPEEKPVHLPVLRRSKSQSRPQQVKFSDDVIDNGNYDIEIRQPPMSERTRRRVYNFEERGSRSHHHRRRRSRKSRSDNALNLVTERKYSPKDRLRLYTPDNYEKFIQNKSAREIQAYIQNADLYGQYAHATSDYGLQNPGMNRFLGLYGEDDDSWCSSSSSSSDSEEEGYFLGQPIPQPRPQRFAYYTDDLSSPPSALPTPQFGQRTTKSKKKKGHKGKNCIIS
B2: KH domain-containing, RNA-binding, signal transduction-associated protein 2 (Homo sapiens), Q5VWX1 (parent)
chain: MEEEKYLPELMAEKDSLDPSFVHASRLLAEEIEKFQGSDGKKEDEEKKYLDVISNKNIKLSERVLIPVKQYPKFNFVGKLLGPRGNSLKRLQEETGAKMSILGKGSMRDKAKEEELRKSGEAKYAHLSDELHVLIEVFAPPGEAYSRMSHALEEIKKFLVPDYNDEIRQEQLRELSYLNGSEDSGRGRGIRGRGIRIAPTAPSRGRGGAIPPPPPPGRGVLTPRGSTVTRGALPVPPVARGVPTPRARGAPTVPGYRAPPPPAHEAYEEYGYDDGYGGEYDDQTYETYDNSYATQTQSVPEYYDYGHGVSEDAYDSYAPEEWATTRSSLKAPPQRSARGGYREHPYGRY
partner: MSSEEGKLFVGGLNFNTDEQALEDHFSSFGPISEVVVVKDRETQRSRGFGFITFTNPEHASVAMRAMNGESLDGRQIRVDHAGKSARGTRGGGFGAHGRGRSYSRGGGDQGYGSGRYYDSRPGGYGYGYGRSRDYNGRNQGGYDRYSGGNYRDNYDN
B3: E3 ubiquitin-protein ligase TRIM9 (Homo sapiens), Q9C026-5 (parent)
chain: MEEMEEELKCPVCGSFYREPIILPCSHNLCQACARNILVQTPESESPQSHRAAGSGVSDYDYLDLDKMSLYSEADSGYGSYGGFASAPTTPCQKSPNGVRVFPPAMPPPATHLSPALAPVPRNSCITCPQCHRSLILDDRGLRGFPKNRVLEGVIDRYQQSKAAALKCQLCEKAPKEATVMCEQCDVFYCDPCRLRCHPPRGPLAKHRLVPPAQGRVSRRLSPRKVSTCTDHELENHSMYCVQCKMPVCYQCLEEGKHSSHEVKALGAMWKLHKSQLSQALNGLSDRAKEAKEFLVQLRNMVQQIQENSVEFEACLVAQCDALIDALNRRKAQLLARVNKEHEHKLKVVRDQISHCTVKLRQTTGLMEYCLEVIKENDPSGFLQISDALIRRVHLTEDQWGKGTLTPRMTTDFDLSLDNSPLLQSIHQLDFVQVKASSPVPATPILQLEECCTHNNSATLSWKQPPLSTVPADGYILELDDGNGGQFREVYVGKETMCTVDGLHFNSTYNARVKAFNKTGVSPYSKTLVLQTSEGKALQQYPSERELRGI
B4: Copper homeostasis protein cutC homolog (Homo sapiens), Q9NTM9 (parent)
chain: MKRQGASSERKRARIPSGKAGAANGFLMEVCVDSVESAVNAERGGADRIELCSGLSEGGTTPSMGVLQVVKQSVQIPVFVMIRPRGGDFLYSDREIEVMKADIRLAKLYGADGLVFGALTEDGHIDKELCMSLMAICRPLPVTFHRAFDMVHDPMAALETLLTLGFERVLTSGCDSSALEGLPLIKRLIEQAKGRIVVMPGGGITDRNLQRILEGSGATEFHCSARSTRDSGMKFRNSSVAMGASLSCSEYSLKVTDVTKVRTLNAIAKNILV
partner: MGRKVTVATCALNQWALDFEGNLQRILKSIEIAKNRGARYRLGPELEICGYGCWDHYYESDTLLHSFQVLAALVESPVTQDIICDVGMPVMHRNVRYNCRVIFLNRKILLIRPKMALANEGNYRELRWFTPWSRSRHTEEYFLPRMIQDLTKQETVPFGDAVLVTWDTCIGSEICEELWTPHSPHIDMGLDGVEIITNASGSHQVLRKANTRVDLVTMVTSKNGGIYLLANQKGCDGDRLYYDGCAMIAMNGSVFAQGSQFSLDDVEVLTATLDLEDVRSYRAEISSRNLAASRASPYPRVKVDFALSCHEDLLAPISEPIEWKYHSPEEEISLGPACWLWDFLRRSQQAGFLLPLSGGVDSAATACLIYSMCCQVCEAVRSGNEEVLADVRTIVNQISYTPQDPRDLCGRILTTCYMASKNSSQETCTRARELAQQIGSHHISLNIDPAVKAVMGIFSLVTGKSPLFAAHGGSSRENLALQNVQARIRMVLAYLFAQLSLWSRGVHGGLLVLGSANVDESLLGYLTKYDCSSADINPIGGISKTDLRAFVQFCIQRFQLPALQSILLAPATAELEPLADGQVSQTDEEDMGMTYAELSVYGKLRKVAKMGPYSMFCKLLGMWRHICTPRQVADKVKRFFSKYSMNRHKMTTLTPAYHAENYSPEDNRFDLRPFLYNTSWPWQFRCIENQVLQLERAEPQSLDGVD
B5: Synaptotagmin-like protein 5 (Homo sapiens), Q8TDW5 (parent)
chain: MSKNSEFINLSFLLDHEKEMILGVLKRDEYLKKVEDKRIRKLKNELLEAKRRSGKTQQEASRVCVHCHRNLGLIFDRGDPCQACSLRVCRECRVAGPNGSWKCTVCDKIAQLRIITGEWFFEEKAKRFKQVNVLGTDVVRQSILRRSPGAEEVQSQEQTRQDAEKSDTSPVAGKKASHDGPKRKGFLLSKFRSATRGEIITPKTDTGRSYSLDLDGQHFRSLKSPPGSDRGSTGSSDLNDQEPGPRTPKSSRSNGVTPGTQSSPAPSTRTVTSVISREYGFENSMDLAAIEGTSQELTKSHRRNTSGTPSIAVSGTSLSSDQSRSELDLSESFTEDSEDTVSIRSKSVPGALDKDSLEETEESIDALVSSQLSTNTHRLASGLSTTSLNSMMSVYSETGDYGNVKVSGEILLHISYCYKTGGLYIFVKNCRNLAIGDEKKQRTDAYVKSYLLPDKSRNNKRKTKIRTGTNPEFNETLKYTISHTQLETRTLQLSVWHYDRFGRNSFLGEVEIPFDSWNFENPTDEWFVLQPKVEFAPDIGLQYKGELTVVLRYIPPEENLMLPPEQLQGNKTFKKGKKKESPVISGGILEVFIKEAKNLTAVKSGGTSDSFVKGYLLPDDSKATKHKTLVIKKSVNPQWNHTFMFSGIHPQDIKNVCLELTIWDKEAFSSNIFLGGVRLNSGSGVSHGKNVDWMDSQGEEQRLWQKMANNPGTPFEGVLMLRSSMGKCRL
partner: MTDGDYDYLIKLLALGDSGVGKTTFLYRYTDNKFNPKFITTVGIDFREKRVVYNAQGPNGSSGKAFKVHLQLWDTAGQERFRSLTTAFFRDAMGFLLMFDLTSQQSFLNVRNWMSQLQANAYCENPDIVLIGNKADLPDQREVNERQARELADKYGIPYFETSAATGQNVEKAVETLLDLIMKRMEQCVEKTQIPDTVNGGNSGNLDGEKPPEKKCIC

Variants of: B1
Settings: with pric1_human PRICKLE1, Q96MT3

Variant | effect of a mutation on the interaction
R672H | with no effect

Variants of: B2
Settings: with rbm3_human RBM3, P98179

Variant | effect of a mutation on the interaction
P333L | with no effect

Variants of: B3
Settings: with fbw1a_human BTRC

Variant | effect of a mutation on the interaction
L277F | with no effect

Variants of: B4
Settings: with nade_human NADSYN1, Q6IA69

Variant | effect of a mutation on the interaction
P77L | disrupting interaction strength

Variants of: B5
Settings: with rb27b_human RAB27B

Variant | effect of a mutation on the interaction
R160H | with no effect
